In paper PMC7081834:

Biological target: Myc-PTEN wild type (human) (UniProt P60484)
Experiment: native gel or EMSA

**Q.** Which stoichiometry N does the source give for “Myc-PTEN wild type, P60484 1-403 (natural protein; other documents disagree on this pair)” here?
**A.** The stoichiometry N was 2.
